Test results taken from US20140105855A1.
pKd: −log10 of the molar value.

Molecular target: preformed IL-17RA-IL-17A complex (IL-17A captured by immobilised IL-17RA) (human) (UniProt Q16552)
Test: SPR, second receptor injected over IL-17A captured on immobilised IL-17RA

preformed IL-17RA-IL-17A complex (IL-17A captured by immobilised IL-17RA) (human), sequence (Q16552 other isoform, or with tags, fused parts or gaps): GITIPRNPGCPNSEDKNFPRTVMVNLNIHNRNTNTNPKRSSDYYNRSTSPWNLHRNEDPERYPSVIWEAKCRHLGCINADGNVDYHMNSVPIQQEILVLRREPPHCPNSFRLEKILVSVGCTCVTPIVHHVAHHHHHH

Q: With “IL-17RA extracellular domain (ECD) (receptor)” as the substance, how does the pKd read?
A: 5.51
